Results: US10100120B2, “Antibody which specifically binds to human CRTH2” (KYOWA HAKKO KIRIN CO., LTD, priority 2015, dated 2018)

How the values were obtained:
[1] = molecular target: T1, mutated human CRTH2 with amino acid substitution (Homo sapiens, UniProt Q9Y5Y4, D171A/I173A/T172A); assay: Epitope analysis using CHO-S cells which express mutated human CRTH2 with amino acid substitution; format: binding; conditions: mutant D171A, T172A, and I173A; antibody 10 μg/mL; relative to wild-type = 100%
T1 construct: inserting genes encoding various mutants with amino acid substitution obtained by deleting termination codons; expressed in transfected cells; host or cells: CHO-S cells (Lifetechnologies), transient (phmAG1-MNLinker vector)
T1 sequence (Q9Y5Y4 1-395 D171A/T172A/I173A): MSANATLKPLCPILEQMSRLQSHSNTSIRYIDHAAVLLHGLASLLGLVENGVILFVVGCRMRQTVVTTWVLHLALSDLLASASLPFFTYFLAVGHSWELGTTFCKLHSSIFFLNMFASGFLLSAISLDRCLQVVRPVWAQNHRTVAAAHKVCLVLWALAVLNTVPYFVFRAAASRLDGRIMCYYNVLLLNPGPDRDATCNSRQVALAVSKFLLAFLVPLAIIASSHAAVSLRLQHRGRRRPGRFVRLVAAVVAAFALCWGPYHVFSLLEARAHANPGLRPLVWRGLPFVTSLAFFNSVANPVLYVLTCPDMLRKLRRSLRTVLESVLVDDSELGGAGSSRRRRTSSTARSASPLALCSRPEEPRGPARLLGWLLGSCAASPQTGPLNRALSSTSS
Method: A mutant with amino acid substitution expression vector obtained by partially substituting amino acid residues in an extracellular region with other amino acid residues among the amino acid sequences of human CRTH2 was prepared. Specifically, mutant with amino acid substitution expression vectors obtained by substitution of S2A; N4A; T6A and L7A; K8A, P9A, and L10A; P12A, L14A, and EISA; Q16E, R19H, and Q21R; H23A, S24A, and N25A; T26A, S27A, and I28A; D171A, T172A, and I173A; S174A, R175A, and L176A; D177A, G178A, and R179A; 1180A and M181A; Y183A, Y184A, and N185A; L187A, L188A, and L189A; N190A; P191A; G192A; P193A; D194A; R195A; D196A, and T198A; N275A, G277A, and L278A; P276A; P279A and L281A; P280A; or V282A, R283A, and R284A in the amino acid sequences represented by SEQ ID NO: 2 were respectively prepared. It should be noted that the above symbols in the amino acid substitution indicate [single letter code of an amino acid residue before substitution] [substitution position counting from the N terminal] [single letter code of the amino acid reside after substitution].
Azami-Green tag was added to the intercellular C terminal region by inserting genes encoding various mutants with amino acid substitution obtained by deleting termination codons to the restriction enzyme sites of BamHI and HindIII using phmAG1-MNLinker (MBL) as expression vectors.
The above-described vectors expressing mutants with amino acid substitution were prepared using 1) a method of entirely synthesizing gene sequences encoding mutants with amino acid substitution and inserting the gene sequences into a vector or 2) a method of performing site-specific mutation from a vector into which DNA which encodes the amino acid sequences of wild-type human CRTH2 represented by SEQ ID NO: 1 was inserted.
CHO-S cells (Lifetechnologies) were used for preparing mutated human CRTH2 with amino acid substitution expressing cell lines. Free style CHO expression medium (Invitrogen) containing 8 mM L-Glutamine (Invitrogen) was used for subculturing cells and the cells were cultured by shaking under the conditions of 37° C. in the presence of 5% CO2.
25 μg of the mutated human CRTH2 with amino acid substitution expression vector prepared in (1) described above was dissolved in 400 μL of Opti-Pro SFM (Invitrogen) and 25 μL of a Freestyle MAX Reagent (Invitrogen) was dissolved in 400 μL of Opti-Pro SFM and each of them were allowed to stand at room temperature for 5 minutes. The two liquids were mixed with each other and allowed to stand at room temperature for 15 minutes. The mixed solution was added to the CHO-S culture solution and the cells were cultured for 24 hours, thereby obtaining cell lines which express mutated human CRTH2 with amino acid substitution.
The CHO-S cells which express mutated human CRTH2 with amino acid substitution established in (2) were washed with SM, seeded in a 96-well plate such that one well has 2×10^5 cells, and centrifuged at 1700 rpm for 2 minutes. After the supernatant was removed, chLym2, LV0HV1, the anti-human CRTH2 antibody hu19A2 v52, hu8B1 v1, ch3C12, or ch31A5 prepared in Example 9, or a commercially available anti-human CRTH2 antibody BM16 (Santa Cruz) prepared to have a concentration of 10 μg/mL using SM was added thereto to cause a reaction at 4° C. for 1 hour.
After the cells were washed, goat anti-Human IgG Alexa 647 (Molecular Probes) diluted with SM was added to wells to which chLym2, LV0HV1, hu19A2 v52, hu8B1 v1, ch3C12, or ch31A5 was added and goat anti-Rat IgG Alexa 647 (Molecular Probes) diluted with SM was added to wells to which BM16 was added at a final concentration of 10 μg/mL to cause a reaction at 4° C. for 1 hour.
After the reaction, the cells were washed and suspended with SM, and the fluorescent intensity was analyzed by flow cytometry (BD Biosciences, FACS CantoII). […]

Th2 cells = assay: Cytotoxic activity against Th2 cells: cytokine production of PBMC after antibody treatment; format: cell-based, human; conditions: antibody 10 μg/mL 20 hours, then anti-CD3/anti-CD28 stimulation 3 days
Method: The mononuclear cell layer prepared in the same manner as in Example 13 was washed twice with RPMI-1640 (Wako Pure Chemical Industries) to which 1/10 volume FBS (GIBCO Inc.), 200 mM-L-Glutamine Stock Solution (NACALAI TESQUE, Inc.), 10 mM MEM Non-Essential Amino Acids Solution (GIBCO Inc.), 100 mM Sodium Pyruvate (GIBCO Inc.), 1 M HEPES Buffer Solution (GIBCO Inc.), and 1/100 volume Penicillin-Streptomycin, Liquid (GIBCO Inc.) were added [hereinafter, referred to as peripheral blood mononuclear cell (PBMC) culture medium], thereby preparing a 1×10^7 cells/mL cell suspension.
The prepared cell suspension was seeded in a 96-well plate at 100 μL/well, chLym2 antibody, the humanized anti-human CRTH2 antibody LV0HV1 or the isotype control antibody described in Example 8 was added thereto at a final concentration of 10 μg/mL to cause a reaction in a 5% CO2 incubator at 37° C. for 20 hours.
The cells after the reaction were washed 7 times with a PBMC culture medium to remove the test antibodies thoroughly. Thereafter, the cells were suspended with 100 μL of PBMC culture medium and seeded in a plate in which anti-CD3 antibody OKT3 (Abeam plc.) was immobilized at a concentration of 1 μg/mL. Next, an anti-CD28 antibody (BD Biosciences) prepared to have a concentration of 2 μg/mL was added thereto at 100 μL/well to cause a reaction in a 5% CO2 incubator at 37° C. for 3 days.
The supernatant after the reaction was recovered, and cytokine in the supernatant was quantified using Human IFN-γ Flex Set (BD Biosciences), Human IL-5 Flex Set (BD Biosciences), and Human IL-13 Flex Set (BD Biosciences) according to the attached instructions.

human basophils = assay: Reactivity against human basophils, flow cytometry; format: binding; conditions: 10 μg/mL, 4° C., 1 hour; FIG. 9
Method: To human peripheral blood collected by adding a heparin sodium injection liquid, the same amount of physiological saline for injection as the human peripheral blood was added and mixed with each other. 15 mL of Ficoll-Paque PREMIUM 1.084 (GE Healthcare) was added to a 50 mL centrifuge tube, 30 mL of the human peripheral blood diluted with physiological saline was overlaid thereon, and centrifugation was performed at room temperature and 1500 rpm for 30 minutes.
After the centrifugation, the mononuclear cell layer was recovered using a pipette and washed twice with an MACS buffer. After the number of cells was counted, basophils were isolated by a negative selection method using Basophil Isolation Kit II, human (Miltenyi Biotec) according to the attached instructions.
After the isolated cells were washed with SM, the isolated cells were seeded in a 96-well plate such that one well has 5×10^4 cells, and centrifuged at 2000 rpm for 2 minutes. […] After the cells were washed, the cells were suspended with SM, and the fluorescent intensity was analyzed by flow cytometry (BD Biosciences, FACS CantoII).

- reactivity against cells expressing mutated human CRTH2 [1]: additionally lost
B1: chLym2: rat/human chimeric Lym2 antibody, Lym2 variable regions with human IgG1 and κ constant regions (antibody, V domains shown)
VH: EVQLVESGGGLVQPGRSMKLSCAASGFTFSNYYMAWVRQAPKKGLEWVATISYDGSSTYYRDSVKGRFTISRDNAKSTLYLQMDSLRSEDTATYYCARHRGYYYSGAGYFDYWGQGVMVTVSS
VL: DVVLTQTPVSLSVTLGDQASISCRSSQSLEYSDGYTYLEWYLQKPGQSPQVLIYGVSNRFSGVPDRFIGSGSGTDFTLKISRVEPEDLGVYYCFQATHDPLTFGSGTKLEIK
- production of IL-5 (Th2 cytokine) (Th2 cells; FIG. 12(A)): reduced
- production of IL-13 (Th2 cytokine) (Th2 cells; FIG. 12(A)): reduced
- production of IFN-γ (Th1 cytokine) (Th2 cells; FIG. 12(B)): not changed
- reactivity against human basophils (human basophils): has reactivity
